Measurements reported in PMC5626551.

Key:
[1] = target: 14-3-3ε (UniProt P92177); assay: GST-14-3-3ε pull-down, anti-GFP blot; conditions: reference: wild type Ncd-GFP; sites S96
[2] = target: 14-3-3ε (UniProt P92177); assay: MBP-14-3-3ε pull-down, anti-pS96 blot; conditions: reference: unphosphorylated Ncd tail (control not described in text); sites S96
[3] = target: 14-3-3ε (UniProt P92177); assay: MBP-14-3-3ε amylose pull-down of purified tail; conditions: reference: Ncd tail without kinase; sites S96

**Q.** With “Ncd (kinesin-14) (from UniProt P20480) S96A” as the substance, how does the “binding against the reference” value [1] read?
**A.** weaker

**Q.** Which “binding against the reference” value [2] does the source give for “Ncd (kinesin-14) tail, 58-192 (from UniProt P20480) Ncd tail after PKD2 and cold ATP” here?
**A.** stronger

**Q.** For “Ncd (kinesin-14) tail, 58-192 (from UniProt P20480) PKD2-phosphorylated Ncd tail”, which “binding against the reference” value [3] is on record?
**A.** stronger
